Experimental data as given in IntAct's records for PubMed 9502724.

B1: Mothers against decapentaplegic homolog (Drosophila melanogaster (Fruit fly)), O62609 (parent)
chain: MGGGSGACPPAHMYGAVAPQDIIVRDMVQMPPPPSNAPTSADACLSIVHSLMCHRQGGESEGFAKRAIESLVKKLKEKRDELDSLITAITTNGAHPSKCVTIQRTLDGRLQVAGRKGFPHVIYARIWRWPDLHKNELKHVKYCAFAFDLKCDSVCVNPYHYERVVSPGIDLSGLSLQSGPSRLVKDEYSAGPLVGSMDIDGNDIGTIQHHPTQMVGPGGYGYPQGPSEYVGDANPMSAMFPTGRTIPKIEPQDGVAGSRGSWMVPPPPRLGQPPQQQQQQPQQQTPQPTQQQQAQSQAAAHSLPVPHGMPGMPGPMNPGPVMAPPPPPQQAQNPQGNGVHHTQANSPTDPASALAMQQQQQQQQQQQQQQQQQQQQSGGVPNGSVNAGGGAAAGGQYYGQPPPVSQMQGAGGGGTSVAPSVHAQQNGYVSQPGSAGSAPVGGGGVFGTAQPTPQQPQQPPTGVQANTGSAGAQAGAGGGAAGTWTGPNTLTYTQSMQPPDPRSLPGGFWNSSLSGDLGSPQQTPPQQQQQQQQPRLLSRQPPPEYWCSIAYFELDTQVGETFKVPSAKPNVIIDGYVDPSGGNRFCLGALSNVHRTEQSERARLHIGKGVQLDLRGEGDVWLRCLSDNSVFVQSYYLDREAGRTPGDAVHKIYPAACIKVFDLRQCHQQMHSLATNAQAAAAAQAAAVAGVANQQMGGGGRSMTAAAGIGVDDLRRLCILRLSFVKGWGPDYPRQSIKETPCWIEVHLHRALQLLDEVLHAMPIDGPRAAA
B2: Protein mothers against dpp (Drosophila melanogaster (Fruit fly)), P42003 (parent)
chain: MDTDDVESNTSSAMSTLGSLFSFTSPAVKKLLGWKQGDEEEKWAEKAVDSLVKKLKKRKGAIEELERALSCPGQPSKCVTIPRSLDGRLQVSHRKGLPHVIYCRVWRWPDLQSHHELKPLELCQYPFSAKQKEVCINPYHYKRVESPVLPPVLVPRHSEFAPGHSMLQFNHVAEPSMPHNVSYSNSGFNSHSLSTSNTSVGSPSSVNSNPNSPYDSLAGTPPPAYSPSEDGNSNNPNDGGQLLDAQMGDVAQVSYSEPAFWASIAYYELNCRVGEVFHCNNNSVIVDGFTNPSNNSDRCCLGQLSNVNRNSTIENTRRHIGKGVHLYYVTGEVYAECLSDSAIFVQSRNCNYHHGFHPSTVCKIPPGCSLKIFNNQEFAQLLSQSVNNGFEAVYELTKMCTIRMSFVKGWGAEYHRQDVTSTPCWIEIHLHGPLQWLDKVLTQMGSPHNAISSVS

Variants of: B1
Settings: with mad_drome Mad, P42003

| Variant | effect of a mutation on the interaction |
| --- | --- |
| G727D | disrupting interaction strength |
| C99S | with no effect |

Variants of: B2
Settings: with Med, O62609

| Variant | effect of a mutation on the interaction |
| --- | --- |
| S452A;S453A;S455A | disrupting interaction strength |
